Test results taken from patent US7071214B2, “Compounds and compositions for delivering active agents” (Emisphere Technologies, Inc., priority 1997, dated 2006).
Like-named read-outs stand apart in the source and are kept apart here.

Design: species or system Rats
Details: rat, in vivo

Row | Compound | Mean peak serum interferon concentration (1 mg/kg) | Mean peak serum interferon concentration (po, 1 mg/kg) | Mean peak serum interferon concentration (50 mg/kg)
1 | interferon | 79±100 | 1951±1857 | –
2 | O=C(O)CCCc1ccc(NC(=O)COc2ccccc2)cc1 [Compound 9, 4-(4-(phenoxyacetyl)aminophenyl)butyric acid] | – | – | 2611±695
